Test results as given in the supplement of paper PMC9170038.

How the values were obtained:
MS2 coat protein [1] = assay: apparent KD of MS2 coat protein, switch OFF state (with FMN for OFF switches, without FMN for ON switches); designed switch direction (-1 OFF switch, 1 ON switch): -1; higher = weaker reporter binding; settings: FMN input: 0 or 200 uM; Eterna round: R93 (includes R88 designs)
Procedure, shortened: (§1)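 SNAP-549-labelled MS2 coat protein was titrated onto designed RNA switches that had been transcribed on-chip from Illumina sequencing clusters. Amounts doubled from 0.7 or 1.5 nM to 3 µM in 100 mM Tris-HCl pH 7.5, 80 mM KCl, 4 mM MgCl2, with constant ligand or without. Apparent KD is the median per design of normalised cluster binding-curve fits.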

MS2 coat protein [2] = assay: apparent KD of MS2 coat protein, switch ON state; designed switch direction (-1 OFF switch, 1 ON switch): -1; higher = weaker reporter binding; settings: FMN input: 0 or 200 uM; Eterna round: R93 (includes R88 designs)
Procedure, shortened: as §1

MS2 coat protein [3] = assay: apparent KD of MS2 coat protein; designed switch direction (-1 OFF switch, 1 ON switch): 1; higher = weaker reporter binding
Procedure, shortened: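 Designed RNA switches with common flanks were transcribed on Illumina chips by stalled E. coli RNA polymerase and titrated with SNAP-549-labelled MS2 coat protein, from 0.7 or 1.5 nM doubling to 3 µM, in Tris-HCl pH 7.5 buffer with KCl, MgCl2, BSA, DTT, tRNA and Tween-20. Steps lasted 0.8–1.5 h (lowest) to 10–20 min (highest). Titrations ran without input, with 200 uM small-molecule ligand, or with an oligonucleotide input. Normalised cluster fluorescence was curve-fitted, and apparent KD is the per-design median over clusters.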

[4] = input ligand: microRNA oligo, concentration not stated
[5] = Eterna round: R95, input ligand: microRNA oligo, concentration not stated
[6] = Eterna round: R95, input ligand: FMN 200 uM
[7] = Eterna round: R95, input ligand: none

| Sequence | apparent KD of MS2 coat protein (MS2 coat protein [1]) [nM] | apparent KD of MS2 coat protein (MS2 coat protein [2]) [nM] | apparent KD of MS2 coat protein (MS2 coat protein [3]; [5]) [nM] | further results |
| --- | --- | --- | --- | --- |
| AAGAAACAUGAGGAUCACCCAUGUGAGGAUAUCCAAGAAAGAAAGAAAGAAAGAAGAAGGAGAAGGCACAAAGG [Quintus Ostorius Scapula] | 119 | 50.5 | – | – |
| AUAGUACAUGAGGAUCACCCAUGUCAGGAUAUGCGAAACGAAAAAAAAAAAAAGUGAAGUAGAAGGGACUAUAA [EX1 Malc#9] | 30.4 | 29.8 | – | – |
| AGAAAGUCAGGAUAUACGAAAAAAAAGGGAAACAACAAGGGACAUGAGGAUCACCCAUGUAGAAGGGACAAGAA [Diamond 98] | 140 | 92.8 | – | – |
| AAAAAGGGAGGAUAUGCAUACACACAAAAAAAAAAAAAAAAACAUGAGGAUCACCCAUGUAGAAGGCCCAAAAA [Dora Explored 4 - Jieux - Exclusion 2] | 14.4 | 21.1 | – | – |
| GGUUGGCGAGGAUAUACAUGAGGAUCACCCAUGUGAGAGAAAAAAGUGAGAAAGAAAAGUAGAAGGCGCUGACC [salish99-ex3-04] | 242 | 45.7 | – | – |
| AAGAAGUCAGGAUAUCGAAGACUGUCGAAAAGACAGUCGAACGAGAAGGGACAUGAGGAUCACCCAUGUGGAAA [Marsurpial 65% 7] | 112 | 56.3 | – | – |
| AUAAACUGAGGAUAUACAUGAGGAUCACCCAUGUAAAAAAAAAAAUGAUCCUCAAAAAGUAGAAGGCAGAAUAA [JR_Exc003_Sub016] | 35.8 | 23.4 | – | – |
| AGCUAGUGAGGAUAUACGAACAAGUCAACGGACUGUAAGGGACAUGAGGAUCACCCAUGUAGAAGGCACUAGCA [Diamond 58] | 148 | 29.4 | – | – |
| ACAAGAUCAGGAUAUACAUGAGGAUCACCCAUGUAUAUCAAAAAGGGACUUACUUAAUGUAGAAGGGAUCAUGU [EX3 280: Random 16] | 13.9 | 12.7 | – | – |
| AGCUAGUCAGGAUAUACGAACAUGUCAAAAGACGUGAACGGACAUGAGGAUCACCCAUGUAGAAGGGACUAGCA [Diamond 5] | 17.5 | 16.2 | – | – |
| CUCUAGUCAGGAUAUGCAAGAAAAGAAGAGAAAGAAAAGAAGCAGAAGGGACAUGAGGAUCACCCAUGUAAGAA [EteRNA is fun!] | 83.4 | 51.3 | – | – |
| CUCAAGUCAGGAUAUAUAAGAAAAGAAGAGAAAGAAAAGAAAUAGAAGGGACAUGAGGAUCACCCAUGUAAGAA [EteRNA is fun!] | 36.9 | 34.5 | – | – |
| AGUCGGCGAGGAUAUACAUGAGGAUCACCCAUGUGAGAGAAAAAAGUGAGUUAGACAAGUAGAAGGCGCUGACA [JL Lego Mod 7] | 172 | 44.1 | – | – |
| CUCAUGUCAGGAUAUCCAUGAAAUGAAGUGAAAGAAAAGAAGGAGAAGGGACAUGAGGAUCACCCAUGUUAGAA [EteRNA is fun!] | 17.1 | 34.1 | – | – |
| AAAAUGUCAGGAUAUCUGGAUAGGAAAAAGAAAACCUAUCCAGAGAAGGGACAUGAGGAUCACCCAUGUAAAAA [JL cataway mod 3] | 171 | 92.9 | – | – |
| AGCACGGUAGGAUAUACGAACAAAACGGGAGAACUAAAGGGACAUGAGGAUCACCCAUGUAGAAGGACCAAGCA [Diamond 90] | 119 | 42 | – | – |
| AAUUAAUUAAUACAUGAGGAUCACCCAUGUAAUUAUUAGAUCAAGGAUAUCAGCUCGUUUAGAGCUGAGAAGGUGAUCACAUGU [SSNG3/18-A3] (Eterna round: R96, puzzle: Same State NG 3) | – | – | – | apparent KD of MS2 coat protein (MS2 coat protein [3]; [4]): 211 nM |
| CAGUGCUGUUGAGAGGAUAUGCGGUGAUGGACAUGAGGAUCACCCAUGUUAGCGACAGCGUUACGGCAGAAGGCUCUACCCACUG [Soteed Omei mod 48] (puzzle: Same State 2) | – | – | 39.1 | – |

| Sequence | apparent KD of MS2 coat protein (MS2 coat protein [1]) [nM] | apparent KD of MS2 coat protein (MS2 coat protein [2]) [nM] | apparent KD of MS2 coat protein (MS2 coat protein [3]; [5]) [nM] | further results |
| --- | --- | --- | --- | --- |
| GUUAAACAUGAGGAUCACCCAUGUCAAUGUAGUCGAGGAUAUGGGCAGCUGUGAGGCGUACUAGAAGGCGAAAAGG [Mat - Same State 1 - Mod of JL - D10] (puzzle: Same State 1) | – | – | 266 | – |
| GAAGGAUGAGCGUAGGAUAUAGGAGGAGUGACAUGAGGAUCACCCAUGUGGUAGGAGGGAGGGUACUAGAAGGACGAGGAAGAGG [JR_SS2_Sub069] (Eterna round: R96, puzzle: Same State 2) | – | – | – | apparent KD of MS2 coat protein (MS2 coat protein [3]; input ligand: FMN 200 uM): 102 nM; apparent KD of MS2 coat protein (MS2 coat protein [3]; [4]): 49.7 nM; apparent KD of MS2 coat protein (MS2 coat protein [3]; input ligand: none): 84 nM |
| UUGAAGAAUUAAGGAUAUCGAGUCAAGAUGUUAAACAUGAGGAUCACCCAUGUGGGUUGCGGUAUCGAGAAGGUAAAUUACAAG [JL SSNG2 1.41] (Eterna round: R96, puzzle: Same State NG 2) | – | – | – | apparent KD of MS2 coat protein (MS2 coat protein [3]; input ligand: FMN 200 uM): 34.8 nM; apparent KD of MS2 coat protein (MS2 coat protein [3]; [4]): 26.9 nM; apparent KD of MS2 coat protein (MS2 coat protein [3]; input ligand: none): 34.9 nM |
| GUGGUCAGACAUGAGGAUCACCCAUGUGGAAUAAAUAAGGAAUAGGAUAUGGAAUAUAGGAUAUACCAGAAGGAUUGGUUGGUG (Eterna round: R96, puzzle: Same State NG 3) | – | – | – | apparent KD of MS2 coat protein (MS2 coat protein [3]; input ligand: FMN 200 uM): 96.9 nM; apparent KD of MS2 coat protein (MS2 coat protein [3]; [4]): 80.4 nM; apparent KD of MS2 coat protein (MS2 coat protein [3]; input ligand: none): 97 nM |
| UGGCUCAGAGCAGGAUAUACGUGGUCACAUGAGGAUCACCCAUGUCUCGAGCUUCGGCUCGAGGCGUAGAAGGGCUCUGAGCCU [SSNG2/6-B3] (Eterna round: R96, puzzle: Same State NG 2) | – | – | – | apparent KD of MS2 coat protein (MS2 coat protein [3]; input ligand: FMN 200 uM): 118 nM; apparent KD of MS2 coat protein (MS2 coat protein [3]; [4]): 131 nM; apparent KD of MS2 coat protein (MS2 coat protein [3]; input ligand: none): 258 nM |
| GCCGCGUUUCGCGCCUACAUGAGGAUCACCCAUGUAUGUCGGCAGGAUAUCGUUUGCUUUGCAAACGAGAAGGGCUGUUGUGGC [salish99_SSNG3_R04_011] (Eterna round: R96, puzzle: Same State NG 3) | – | – | – | apparent KD of MS2 coat protein (MS2 coat protein [3]; input ligand: FMN 200 uM): 13.4 nM; apparent KD of MS2 coat protein (MS2 coat protein [3]; [4]): 9.04 nM; apparent KD of MS2 coat protein (MS2 coat protein [3]; input ligand: none): 14.4 nM |
| UAGCGCUGUCGAGAGGAUAUGCGGUGAUGGACAUGAGGAUCACCCAUGUUAGCGAUAGCAUUACGGUAGAAGGCUCUACAGCUGC [salish99_ss2_r3_092] (puzzle: Same State 2) | – | – | 23.2 | – |
| AGAUAGUGUGGAAAGGAUAUACGGUUGAGGACAUGAGGAUCACCCAUGUAGUAGAGGAAGGAAGGGUAGAAGGUUCAGGAUUGAU [JR_SS2_Sub018] (puzzle: Same State 2) | – | – | 43.1 | apparent KD of MS2 coat protein (MS2 coat protein [3]; [6]): 70.2 nM; apparent KD of MS2 coat protein (MS2 coat protein [3]; [7]): 50.4 nM |
| UUUGGGUGGCUGGAGGAUAUCCUGGUUGUUACAUGAGGAUCACCCAUGUGCCGCGCGGUGCGCUGGGAGAAGGCCGGCGGCCGUU (puzzle: Same State 2) | – | – | 61.1 | apparent KD of MS2 coat protein (MS2 coat protein [3]; [6]): 28.9 nM; apparent KD of MS2 coat protein (MS2 coat protein [3]; [7]): 141 nM |
| AAAAAACAUGAGGAUCACCCAUGUCGAAAGACAUGAGGAUAUGUGUGGAAACCAUACUAUACAGAAGGCAUAAAAA [SS1 - 1009] (Eterna round: R96, puzzle: Same State 1) | – | – | – | apparent KD of MS2 coat protein (MS2 coat protein [3]; input ligand: FMN 200 uM): 60.6 nM; apparent KD of MS2 coat protein (MS2 coat protein [3]; [4]): 137 nM; apparent KD of MS2 coat protein (MS2 coat protein [3]; input ligand: none): 96.8 nM |
| UGUAAACAUGAGGAUCACCCAUGUUUUUUCAUGGGAGGAUAUCUGAGUUAAGUAUAUUAAGGAGAAGGCCUUGUGU [× ×•×ª×• ×ž×“×™× ×” × ×—×ª-03] (puzzle: Same State 1) | – | – | 18.7 | apparent KD of MS2 coat protein (MS2 coat protein [3]; [6]): 90.2 nM; apparent KD of MS2 coat protein (MS2 coat protein [3]; [7]): 24.7 nM |
| UGUAUACAUGAGGAUCACCCAUGUCAACGUAGUCGAGGAUAUGGGCAGCCGUGAGGCGUACCAGAAGGCGAAGAGG [JL-ss1-3.05 ViennaUCT mod] (puzzle: Same State 1) | – | – | 95.3 | apparent KD of MS2 coat protein (MS2 coat protein [3]; [6]): 27.6 nM; apparent KD of MS2 coat protein (MS2 coat protein [3]; [7]): 172 nM |
| AGCUAUCGCGUACGAUAGCUGAAGCGUGUACAUGAGGAUCACCCAUGUCAUGUACAAGCUUUUUGCUCGUCUUAUUG [JL-shm-2.28 JL mod] (puzzle: Sensor for hsa-mir-208a) | – | – | 18.2 | apparent KD of MS2 coat protein (MS2 coat protein [3]; [6]): 249 nM; apparent KD of MS2 coat protein (MS2 coat protein [3]; [7]): 296 nM |
| UACUAUCUAUCUCAGGAUAUCAUGUCAAAGACAUGAGGAUCACCCAUGUACCAGGAAACUGGUUAUGAGAAGGGAGAUAGAUAGU [Mat - Same State 2 - Mod - D40] (puzzle: Same State 2) | – | – | 53.2 | apparent KD of MS2 coat protein (MS2 coat protein [3]; [6]): 160 nM; apparent KD of MS2 coat protein (MS2 coat protein [3]; [7]): 249 nM |
| GUGGUGGGUUGAGGAUAUUGGUUGUCGUUGUCCCACAUGAGGAUCACCCAUGUGGGUUGUGGUUUUGAGAAGGUUGGUUGCUGG [salish99_SSNG2_r04_052] (Eterna round: R96, puzzle: Same State NG 2) | – | – | – | apparent KD of MS2 coat protein (MS2 coat protein [3]; [4]): 12.9 nM |
| UGGAUCUAGGCUUGCCUGGGUCCAUGUUGACAUGAGGAUCACCCAUGUGUAUUUUUUAAGCUUUUUGUUUGUCAACA [JL A Humble Attempt mod 6] (puzzle: Sensor for hsa-mir-208a) | – | – | 13.2 | apparent KD of MS2 coat protein (MS2 coat protein [3]; [6]): 42.4 nM; apparent KD of MS2 coat protein (MS2 coat protein [3]; [7]): 42.5 nM |
| CAGCGCUGUCGAGAGGAUAUGCGGUGAUGGACAUGAGGAUCACCCAUGUUAGCGAUGGCAUUACGGUAGAAGGCUCUACAGCUGC [Soteed - 4] (puzzle: Same State 2) | – | – | 26 | – |
| GCUUGCGGCGCAGGAUAUGGGUGCCUGUACAUGAGGAUCACCCAUGUUAAGGGACGGAAAACGAACCAGAAGGGCGUCGCGAGC [Inraeded] (Eterna round: R96, puzzle: Same State NG 2) | – | – | – | apparent KD of MS2 coat protein (MS2 coat protein [3]; input ligand: FMN 200 uM): 84.9 nM; apparent KD of MS2 coat protein (MS2 coat protein [3]; [4]): 218 nM; apparent KD of MS2 coat protein (MS2 coat protein [3]; input ligand: none): 1280 nM |
